Reference: PMC314469, “Protein Interaction Networks by Proteome Peptide Scanning” (PLoS Biology, 2004)

T1: Rvs167 SH3 (RV167_YEAST), P39743
T1 chain: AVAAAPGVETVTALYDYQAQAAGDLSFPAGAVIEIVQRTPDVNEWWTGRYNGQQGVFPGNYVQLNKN

T2: Yhr016c SH3 (YSC84_YEAST), P32793
T2 chain: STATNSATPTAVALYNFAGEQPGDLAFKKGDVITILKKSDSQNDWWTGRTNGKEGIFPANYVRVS

T3: Boi1 SH3 (BOI1_YEAST), P38041
T3 chain: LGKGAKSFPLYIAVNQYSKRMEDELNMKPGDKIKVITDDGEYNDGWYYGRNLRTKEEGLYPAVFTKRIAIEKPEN

T4: Boi2 SH3 (BOI2_YEAST), P39969
T4 chain: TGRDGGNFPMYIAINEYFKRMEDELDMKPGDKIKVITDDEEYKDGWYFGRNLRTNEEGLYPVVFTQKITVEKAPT

T5: Yfr024 SH3 (LSB3_YEAST), P43603
T5 chain: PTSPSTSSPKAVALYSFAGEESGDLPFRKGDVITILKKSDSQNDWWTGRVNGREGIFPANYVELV

B1: YJL194W 2-15 (peptide)
chain: SAIPITPTKRIRRN
B2: YGL028C 19-32 (peptide)
chain: SALPILPKREVVTR
B3: YDL156W 62-75 (peptide)
chain: SASPTLPTRRSRRL
B4: YDL033C 13-26 (peptide)
chain: SASPYRPQRLPAKF
B5: YER143W 341-354 (peptide)
chain: SDKPLTPTKTSSTL
B6: YHR164C 232-245 (peptide)
chain: SDLPSSPIKAPNVE
B7: YMR182C 187-200 (peptide)
chain: SDTPASPSKVQSFD
B8: YER032W 443-456 (peptide)
chain: SEEPTSPTRQVNPE
B9: YHR184W 124-137 (peptide)
chain: SELPKSPYRQKPTQ
B10: YNL139C 1447-1460 (peptide)
chain: SELPTRPSKSKTYN
B11: YNR016C 154-167 (peptide)
chain: SENPLLPEKLSQSK
B12: YOR254C 500-513 (peptide)
chain: SFAPFFPTKRRGSW
B13: YPR071W 44-57 (peptide)
chain: SFVPFPPFKLLTFD
B14: YDR464W 666-679 (peptide)
chain: SGKPKKPYRRWTPE
B15: YGR040W 221-234 (peptide)
chain: SGKPLFPGRDYHHQ
B16: YJR083C 215-228 (peptide)
chain: SGPPLLPPRNTMKN
B17: YNL138W 352-365 (peptide)
chain: SGPPPRPKKPSTLK
B18: YOR059C 252-265 (peptide)
chain: SHAPTKPTKTYKKW
B19: YDR419W 203-216 (peptide)
chain: SHLPLIPEKIKSLK
B20: YDL203C 329-342 (peptide)
chain: SHQPYLPIKNKNIV
B21: YOR057W 166-179 (peptide)
chain: SHSPISPLKIETAP
B22: YML061C 386-399 (peptide)
chain: SKDPNRPTKFAFES

Tests used:
Experiment in all cases: SPOT array
[1] = target: T1, Rvs167 SH3 (RV167_YEAST), P39743
[2] = target: T2, Yhr016c SH3 (YSC84_YEAST), P32793
[3] = target: T3, Boi1 SH3 (BOI1_YEAST), P38041
[4] = target: T4, Boi2 SH3 (BOI2_YEAST), P39969
[5] = target: T5, Yfr024 SH3 (LSB3_YEAST), P43603

Row | Binder | normalised SPOT signal, Boehringer light units (BLU); mean over the file's lines of this peptide [1] | normalised SPOT signal, Boehringer light units (BLU); mean over the file's lines of this peptide [2] | normalised SPOT signal, Boehringer light units (BLU); mean over the file's lines of this peptide [3] | normalised SPOT signal, Boehringer light units (BLU); mean over the file's lines of this peptide [4] | normalised SPOT signal, Boehringer light units (BLU); mean over the file's lines of this peptide [5]
1 | B1 | 73 | 31.6 | 873 | 141 | 2690
2 | B2 | 20100 | 43500 | 72.3 | 33.1 | 49200
3 | B3 | 77800 | 97900 | 46400 | 10000 | 49400
4 | B4 | 67.3 | 543 | 514 | 105 | 2420
5 | B5 | 100 | 377 | 110 | 53.6 | 150
6 | B6 | 27.8 | 50.7 | 41.3 | 59.9 | 8.4
7 | B7 | 51.8 | 46.4 | 94.4 | 77.6 | 94.3
8 | B8 | 40.3 | 303 | 32.5 | 26.6 | 52.2
9 | B9 | 15.8 | 0 | 1670 | 37.1 | 440
10 | B10 | 20.6 | 375 | 138 | 39.8 | 4580
11 | B11 | 24.9 | 158 | 54.4 | 38.8 | 196
12 | B12 | 232 | 998 | 342 | 350 | 15400
13 | B13 | 68.3 | 290 | 75.4 | 28.7 | 322
14 | B14 | 196 | 407 | 109 | 28 | 4000
15 | B15 | 105 | 896 | 33.8 | 54.4 | 2060
16 | B16 | 25500 | 30000 | 577 | 65.5 | 32900
17 | B17 | 29 | 305 | 138 | 84.8 | 2620
18 | B18 | 10 | 104 | 111 | 21.9 | 3670
19 | B19 | 50.3 | 136 | 123 | 56.3 | 774
20 | B20 | 50.4 | 99.3 | 80.9 | 85 | 1340
21 | B21 | 20.2 | 45.7 | 196 | 47 | 38.9
22 | B22 | 37.7 | 236 | 47.1 | 37.9 | 162
